Results on 21 sequences are retold here after a protein production outcome set (Wang et al. 2014).

This series can be described thus: label from the status in PepcDB records.
As for “MKQIVAGIVAHVDAGKTTLSEALLYRTGEIRKLGRVDHGDAFLDTNSLEKARGITIFAHQALVEHGDLRLTLLDTPGHVDFAAETERVLRVLDYAILVVSGTDGVQGHTETLWRLLARYGVPTFIFVNKCDAAGFAREAILAQLRKRLSDAIYPLPAMEQFTEGSAVPLDAFAEDIATLDEEAMNDYLEHGVLSVGRLRSMIAVRELFPVYFGSALKLEGVEEFLDGLETFTREREWPAAFAARVFKIAHDGQHNRMTWLRVTGGALKAKEIVSSSSCAAASTPSPAQEDDGMAWSEKVDQVRIYNGAKFETVTEVPAGSVCAVTGLTRTFPGEGLGAEPDAESPSLQPVLTYTVLPAGAESDTAGTSGAAKRGGTGHDSVNRDDAEHDAAKSETGRNEENDTAGQDAETDNSSPALPQFDDLTLHKVITALRELEDEDPLLHVVWVERLAEIHVQLMGTVQLEIIQQTLHDRFGLDVSFGPGSILYRETITAPVEGAGHFEPLRHYAEAHILLEPGEPGSGVTVGSALSENDLDRNWQRLILTHLTEREHLGVLVGAPLTDIKMTLVAGRAHLKHTEGGDFRQATYRAIRQGLMEARAGVSGRPETPVESRPDTTGEGNCRLLEPWYRFRLEVPADMIGRAMSDIQRMAGTFESPVTDGEYAVIEGEAPVSEMRDYAMDVNQYTHGHGHFSATFGGYKPCHDAKQVIAAAAYDPEADLDNTPDSVFCAHGAGYPVKWYKVPEFAHVDYVM”, the protein production result is listed as “failed”.
For “MKQLFQKLYDHIEITLLVLLSVSFVTGMYMMMNRPIGPTMMDYVPQVIIGTIIIVDIVFLISGRKKENSK” the value was “failed”; for “MKQLNDGDFIKIEFEMRVGEEKKLVSTSKADLAKENDIFDENARYGDIVVIVGQEGIFKEVNEAFRKAEPGQEVEVEVPPEDAFGQRLPSNIKIHTMREFQRLEHHHHHH”, “not failed”.
For “MKQLSGLLGELRQKLCAGFPEQAGIQQLIFPAPGLVGRQLLEWLTAQTHFPQFYWRHRDNHEEAAVCGQTRSFADMKDADDFIQQNPDANGLRIWGLNAFEPVMVFGQLTDNGLVSGKNAQASFLFLPRLEILRRGKKTSLTLNLSSETSLQKDALQAITFIDQLMAARALPVLNARIQHSSHTPGYPQWRNLIQQALNDIEQQKLDKVVLARTTTLTLNKPLSCAAFMAASRQVNHRCYHFMLRFDDRQAFLGSSPERLYLRQQLHLETEALAGTVSNLDSDPQAAVLADWLMHDEKNQRENLLVVDDICQRLQGGVTAVDVMPPEIIRLRKVQHLRRRICAQLSRASDTDCLQRLQPTAAVAGLPREAARQFIAKHELFSRGWYAGSAGYLSLKRTEFSVALRSARVDGQQIHLYAGAGIVAGSDAEQEWQEIDNKSAGLQSLLEHEAQPVKA”, the protein production result was “not failed”.
For “MKQMKFKYAYQLFFTQFIILLIACIMIGVLVSHSLKDYFYQSQVDDLTSYGQTISRDIRYSPQDATMQVLNTYQRILDVKKIHYTIKNANDETIYPTQMNQPLPKDFSISADDKKKLESGETVSKKIDNRFNKEMTIVYVPIMNGDKFVGSIVLNSPISGTEQVIGTINRYMFYTILLSITVALILSAILSKLQVNRINKLRAATKDVIQGNYNARLKENNFDEIGALAIDFNKMTQTLETSQEEIERQEKRRRQFIADVSHEMRTPLTTISGLTEGLVNDIIPKSETDRCIALIDTEARRLTKLVNENLDYEKIRSNKIKLQKTRFNGKEFLELIKEQLDYVASEKGNTITVAIDKDMAIYADYDRLTQVFINIVKNSVQFTENGQITLTGTQDYKESVLTITDTGIGMNTEELEQIWERFYKADMSRTNTAFGESGIGLSIVKQLIEYHDGSITVTSEPNKGTSFTIRLPFFQDNEQ” the value was “failed”; for “MKQPTAVIFDWYNTLIDTSINIDRTTFYQVLDQMGYKNIDLDSIPNSTIPKYLITLLGKRWKEATILYENSLEKSQKSDNFMLNDGAIELLDTLKENNITMAIVSNKNGERLRSEIHHKNLTHYFDSIIGSGDTGTIKPSPEPVLAALTNINIEPSKEVFFIGDSISDIQSAIEAGCLPIKYGSTNIIKDILSFKNFYDIRNFICQLINI”, “not failed”.
Take “MKQRRKGQENSDTEEMISRIYPYITRVFDIYEIQKSGEILYFFGTPKTDAENVMGELWAPLEQRGLGGTLKYELGEHVLIVTPVKKAKEKHWVNLALFIATVFTTMICGAWLFGVDLWSEPLQIFQGLPFTLAILAVLGSHEMAHYAMARHHGMKTSLPYFIPFPTFIGTMGAVIRYRGPIPDRKALFDVGIAGPLVGLLVSIVVTIIGLNLDVPAVKPLPDSLMFELGLPPLFVMLQKLVGVTGSNLHPVAFAGWVGMFVTLLNLLPAGQLDGGHVLRAMLGKKADWVSSMMPRILLMIGIYVVYGLKGDGFIWIFWALFLWAFAAAGHPSPLHDKMKLDRKRILIGILTFILGLLCFTLIPFKPIT”: the protein production result was “failed”.
For “MKQSKIRSVLQSIALLVLAGTAAAEPKLEKITHGRFEQIPVLRPDGEPQRVVIWFSGAGHVDQRTRQAELLRQDGAMVALVDTTHLYKVLAADSNHCTFSVGDVENLSRYLQAYYRDKTYRLPLLVGDGDGSGLVYAVAAQAPENILAGVVTDGLCP”, the protein production result is given as “failed”.
For “MKQSLQIWLEAARPKTLPLALVSILTGSVLAYSAGHFSLTIAIMAFATATLLQILSNLANDYGDAVKGTDNENRLGPQRAMQTGAVSAKQMKQAIIFNIVLTAISGLVLVFYALSSPESIITFIGLGILAIIAAIAYTMGSKPYGYVGLGDISVFLFFGLLGVSGTYFLHTGHVDTTLFLPALGCGLLAVAVLNINNMRDIENDRECGKRTVAVRLGQHKAKQYHFILLGGAILAFAAYLLIQDKPLWISLPFLLSVYVVIHHGKAVWDTEKPAQIAPMLPVIVKCSLVTNVLFATIVVAQTLVS” the value was “failed”.
For the sequence “MKQTELLKGILEGLVLAIIQRKETYGYEITKILNDQGFTEIVEGTVYTILLRLEKNQWVIAEKKPSEKGPMRKFYRLTSSGEAELADFWQRWTLLSKQVNKMKKNGGIEHVKF”, the protein production result is recorded as “not failed”.
The value for “MKRADIKRRPLADTTLTGLEPEAKEYRELDGNGLYFRVKPDGGKSWQLRYKRPAGNWAWMGLGGYPEVSGALAREKAAELRKTISSGIDPLEQKRSAKAAIDAAKTRTFRAAADAWLKAKEEKGLAPSTLNKIRTYLDKDILPALGDKPLDEITRTDCAELQASIEARDAHNVAEKCRTWINQIFGRAIGLGLTENDPGSRLRDIAAQAPKTQQHPHLLEPELGEFLTALKNTPSRLTARTAAWLCIWTASRPGMVRLAEWKEFDLDKATWTTPAAKMKMRRDFVCPLPHQAIAALKELHCLTGRSRWLFPGVGAKNPTISENTINKVFATIGYKGRLVGHGTRHTASTLLREHGWPKEHVEAQLAHKEEGISGVYNKAQYLEQRITMMQWYADHLDALEQGKVIQGQFGKAL” was “failed”.
For “MKRALEFLKECGVFYLATNEGDQPRVRPFGAVFEYEGKLYIVSNNTKKCFKQMIQNPKVEISGMNKKGQWIRLTGEVANDDRREVKELALEAVPSLKNMYSVDDGIFAVLYFTKGEGTICSFKGENETFSL” the value was “not failed”; for “MKRAYKIEINPTDDQKSKIHQTIGVSRFIYNFYIAHNKEIYEKEGKFVSGMDFSKWLNNEYIPNNQDKKWIKEVSSKATKQAIMNGDKAFKDFFKKAKGFPRFKKKKNQDVKAYFPKNNKTDWTLERHRVKIPTLGWVRLKEFGYIPKNSVVKSGTVSQKADRYYVSILVEETYIKISNPNNEGLGIDLGIKEFAICSNGNKFKNINKTSTVKKIEKKLKREQRKLSRKYESLKIRNKNIKEGRATRQNIQKQVVKVQRLHQRLANIRTDYINKTVFSIVKQKPSYITIEDLAVSNMMKNKHLSKAISSQKFFEFKTKLMSKCKQNNIELRIVDRFYPSSKTCSNCGKIKKDLKLSDRIYKCDCGFTIDRDLNASINLKNAKEYKIA”, “failed”.
For “MKRGEELPPLEIEVTRTLIVAGAIASRDYQDVHHDAESARRRGSPDIFMNILTTNGLVGRYITDHFGPGAVLRKVAIRLGAPNYPGDTMVLTGTVVEVEGDTATVKVIGANGIGTHVRGTVTVTVPPGSASLEHHHHHH” the value was “failed”; for “MKRIFSLLEKTWLGAPIQFAWQKTSGNYLAVTGADYIVKIFDRHGQKRSEINLPGNCVAMDWDKDGDVLAVIAEKSSCIYLWDANTNKTSQLDNGMRDQMSFLLWSKVGSFLAVGTVKGNLVIYNHQTSRKIPVLGKHTKRITCGCWNAENLPALGGEDKMITVSNQEGDTIRQTQVRSEPSNMQFFLMKMDDRTSAAESMISVVLGKKTLFFLNLNEPDNPADLEFQQDFGNIVCYNWYGDGRIMIGFSCGHFVVISTHTGELGQEIFQARNHKDNLTSIAVSQTLNKVATCGDNCIKIQDLVDLKDMYVILNLDEENKGLGTLSWTDDGQLLALSTQRGSLHVFLTKLPILGDACSTRIAYLTSLLEVTVANPVEGELPITVSVDVEPNFVAVGLYHLAVGMNNRAWFYVLGENAVKKLKDMEYLGTVASICLHSDYAAALFEGKVQLHLKAKSWMLTKNVRLGFSQQWMISAVSYAMP”, “failed”; for “MKRIHVRYKQIRRFFLLLGLVIIAAYVAFVLYRYWDHWLLLSNPQKAIENFEQQFRSENLFNFLVLTVLTSLTAAIPFLSSSVLSVFNGVVFGPWIGVLMNTIGNILGHFFLIQMMSRVDLTERDSKFNHHLERLSQIKNPYLALTLGYMIPFIPSFLVDYMVLDTKIPWHRWLPCLTLGVIPTSILYAFGGHAIIAGNMKQLILIVLLALILLAIYKRFEKKKG”, “failed”.
For the sequence “MKRKIIVACGGAVATSTMAAEEIKELCQSHNIPVELIQCRVNEIETYMDGVHLICTTARVDRSFGDIPLVHGMPFVSGVGIEALQNKILTILQG”, the protein production result is “not failed”.
Take “MKRKKLSIFILSAAIVTSSVSYGMTAKADEVKETKGYNYNVNLSEQKAVANNKISVKKVNGEILGYANPFTMLQILNMNGKTVEVITQSGLRGYVDANEFTLVESAVNDKLIEKNIEGHVTNVSTVLNLRKEPRIGAEIINRLLNNTKVNILGKQGSWYKIELNGQKGYVYGMFLNEGTMKENSSKTIANKKSEVKSKDKKEKKSSVKKEAKKEVVSGVKAKVVQKQREEAKANMTSEAKPAINKDAKSNNKVEVKSEVKKEAKNEVKTEMNSSTKVETSQVVTSEMVQAVNTEVKSEKNQEANLQVRPEIKSEEKTEMISKENLNVIPEAKKEGISEEIKPEVNTEVESKPEMNKEVKAEEGKTAPEVKLEEKQEVKPVEASEEKVEVKKEEVQDPKAKEMDELLKSEEYKFLRMSISYGERLVDRNDVYTKDSLKILRTELEKAKKVFQDKDNLTMKLVQDTRDDLERAIVDLVKISDVKKPVKSKAKVEVKKESNTEKKQEVKEQPAKAEVIVPEVKENKEIKKEEPVKAKEVVKEKKSREEEIEEILKSEEYRFLLKDIAYGERLSEKITVYTRDSLKVLNAAIEKAGRIVRQKEKLTVKLVQDTRDDVDRAIVDLVKKNN”: the protein production result is given as “failed”.
The value for “MKRKWIDALWVMGVLLMAGFCLSACNRELDVQTVFPFEVSTMPVPKQIKQGETVEVRCSLVSEGDFSGTCYTMRFFQTEGKGVLRIGRGVALKPNDCYPVGKGDFRLYYTSQSKERQSLEIVFEDNHGQSQTIVLDFNHKESDEDKEREAGYRT” was “failed”; that for “MKRLADVKISTLDLVPVRHDKGPAESLRNSLSLAQHVEKLGYNRFWVAEHHNMDGIASSATSVLLAYLAGGTSTIRVGAGGIMLPNHAPLVVAEQFGTLASLYPDRIDLGLGRAPGSDQMTARALRRERSGSAEDFPDDVTELMEYLGPRTPDQKVIAVPGSGTNVPIWLLGSSLFSAQLAGMRGLPYAFASHFAPRYMHEAIRVYRNHFQPSAVLDKPYVMLGVPLSAADTDEQAEYLATSVYQRILALMRGHSLMQRPPVDSMDGLWLPHEREAVASFLGLAMVGGPEKIRAKLDVLLEQTDADELIFTCDMYEHEDRLRSYEILAQ” was “failed”; that for “MKRLDLVAGPNGAGKSTFVALTLAPLLPGIVFVNADEIAKQRWPDDPTSHAYQAAQVAADTRARLIDLGRPFIAETVFSHPSKLELIRTARTAGYTVVLHVLVIPEGLAVERVRHRVAAGGHDVPETKIRERHRRLAELVAQAITLADGATVYDNSRLAGPRIVAQFSGGGIIGRACWPSWTPPPLMSRWSNRPETA” was “failed”.
